Seven molecules from US20250296985A1 (TRANSLATIONAL HEALTH SCIENCE AND TECHNOLOGY INSTITUTE, published 2025) can be followed below.

Some results are limits rather than exact numbers.

The chains are these.
B1: THSC20.HVTR26 (antibody, V domains shown)
VH: EVQLVESGGGLVQPGGSLRLSCAASGFTVSSNYMSWVRQAPGKGLEWVSAIYSGDSTYYADSVKGRFTISRHNPKNTLYLQMNSLRAEDTAVYYCARLVGALTNIVVSGDGGAFDIWGQGTMVTVSS
VL: SYELTQPASVSGSPGQSITISCTGTSSDVGSYNLVSWYQQHPGKAPKLMIYEVSKRPSGVSNRFSGSKSGNTASLTISGLQAEDEVDYYCCSYAGSSTWVFGGGTKLTVL
B2: THSC20.HVTR04 (antibody, V domains shown)
VH: QVQLVESGGGVVQPGRSLRLSCAASGFTFSNYAIHWVRQAPGKGLEWVAVVSYDGSNKYYAESVKGRFTISRDNSKNTLSLQMISLRPEDTAVYYCASVADTAMVPEWYFDLWGRGTLVTVSS
VL: QSVLTQPRSVSGSPGQSVTISCTGTSSDVGAYNYVSWYQQHPGKAPKLMIYDVSARPSGVPDRFSGSKSGNTASLTISGLQAEDEADYYCCSYAGSWVFGGGTKLTVL
B3: THSC20.HVTR11 (antibody, V domains shown)
VH: EVQLVQSGAEVKKPGSSVKVSCKASGGTFSSYTISWVRQAPGQGLEWMGRIIPILGIANYAQKFQGRVTITADKSTSTACMELSSLRSEDTAVYFCARIRGYSGYGSSYYFDYWGQGTLVTVSS
VL: QSVLTQPPSVSGAPGQRVTISCTGSSSNIGAGYDVHWYQQLPGTAPKLLIYGNSNRPSGVPDRFSGSKSGTSASLAITGLQAEDEADYYCQSYDSSLSHEVFGGGTKLTVL
B4: THSC20.HVTR55 (antibody, V domains shown)
VH: EVQLVQSGAEVKKPGESLRISCKGSGFRFTNYWIGWVRQMPGKGLEWMGIIYPGDSDTRYSPSFQGQVTISADKSLSTAYLQWSSLQASDTAIYYCARRDRWELDPLDYWGQGTLVTVSS
VL: DIVMTQSPSTLSASVGDRVTITCRASQSISSWLAWYQQKPGKAPNLLIYKASSLESGVPSRFSGSGSGTEFTLTISGLQPDDFATYYCQHYNGYPYTFGQGTKLEIK
B5: THSC20.HVTR06 (antibody, V domains shown)
VH: QLQLVQSGSELKKPGASVKVSCKASGYTFTKYTVNWVRQAPGQGLEWMGWINTNTGNPTSAQGFTGRFVFSLDTSVSTAYLHISSLKTEDTAVYYCARVLGDQQVVGGDDYYYYYAMDVWGQGTPVTVSS
VL: SYELTQPPSVSVSPGQTASITCSGDKLGDKYASWYQQKPGQSPVLVIYQDTKRPSGIPERFSGSNSGNTATLTITGTQAMDETDYYCQAWDNSGWVFGGGTKLTVL
B6: THSC20.HVTR88 (antibody, V domains shown)
VH: QVQLVQSGAEVKKPGASVKVSCKASGYPFTSYVISWVRQAPGQGLEWMGWISAYNGNTDYAQKLQGRVTMTTDTSTSTAYMELRSLRSDDTAVYYCAREGKYSSGWSYSEYFDYWGQGTLVTVSS
VL: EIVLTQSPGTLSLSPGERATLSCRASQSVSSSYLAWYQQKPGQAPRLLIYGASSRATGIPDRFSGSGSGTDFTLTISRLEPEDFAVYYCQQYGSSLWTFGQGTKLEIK
B7: THSC20.HVTR39 (antibody, V domains shown)
V domain 1: QVQLQESGPGLVRPSETLSLTCIVSGGSINSRSYSWGWIRQPPGKGLEWIGNVYYSGTTYYNPSLKSRVTISVDTSKNQFSLNLSSVTAADTAVYYCARNLFYYDRSGSSHHDAFDIWGQGTMVTVSS
V domain 2: HGYVRPLSVAPGQTARITCGGNNIGSKSVHWYQQKPGQAPVLVVYGDGDRPSGIPERFSGSNSGNTATLTISRVEAGDEADYYCQVWDRGSDVWVFG

One test has as its target T1, Biotinylated wild type SARS-CoV-2 receptor binding domain (RBD) antigen (SARS-CoV-2, Wuhan isolate (wild type), UniProt P0DTC2 319-541).
B1: binding was characterised by a dissociation constant (Kd) of 0.22 nM. B2: the affinity, expressed as Kd, was 0.19 nM.

The target in a further test is T1, Biotinylated wild type SARS-CoV-2 …. The source holds these as a separate data set.
With B3, the Kd – broadly, the free concentration of one partner at which half of the binding sites on the other are occupied at equilibrium, for simple one-to-one binding – is below 0.001 nM; the koff (usually a measure of how fast the partners let go of each other) is below 1e-07 s⁻¹; the kon (commonly the second-order rate constant of association) turned out to be 103000 M⁻¹ s⁻¹. B4 yielded a Kd below 0.001 nM and a koff below 1e-07 s⁻¹. Consider B1, for which the affinity, expressed as Kd, was 0.255 nM.

Regarding B5, the equilibrium dissociation constant (Kd) was found to be 0.635 nM. B6 had a Kd of 0.427 nM. For B7, the dissociation constant Kd was 0.513 nM. The Kd values of the last two molecules are within 1.5-fold of each other. Molecule B2 gave a dissociation constant (Kd) of 0.196 nM.
